Numbering of substitutions follows the chain as printed.
B1: mAb29257 (antibody, human IgG4 S228P, kappa, V domains shown)
VH: EVQLVESGGNLVQPGGSLRLSCAASGFTFSNYAMSWVRQAPGKGLEWVSGITGNGIKTYYSVSAKGRFTISRDNSKNTLFLQMNSLRAEDTAIYYCVKERGHSWFGDWFDPWGQGTLVTVSS
VL: DIVMTQTPLSSPVTLGQPASISCRSSQGLVNSDGNTYLSWLHQRPGQPPRLLIYEISNRFSGVPDRFSGSGAGTDFTLKISRVEAEDVGFYYCMQSTQFPLTFGGGTKVEIKR
B2: mAb27245 (antibody, human IgG4 S228P, kappa, V domains shown)
VH: QVQLQQWGAGLLKPSETLSLTCAVYNGSFSSYYWNWIRQPPGKGLEWLGEINHRGSTNYNPSLTSRVTISVDTSKNQFSLKLTSVTAADTAIYYCTAHTRGFLYWGQGTLVTVSS
VL: DIQMTQSPSSLSASVGDRVTITCQASQDINNYLNWYQQKPGKAPKLLIYDASNLVPGVPSRFSGTGSGTDFSFTISSLQPEDIATYYCQHYYDLPLTFGGGTTVAIRR
B3: mAb27241 (antibody, human IgG4 S228P, kappa, V domains shown)
VH: B2 VH
VL: B2 VL with N31I, K39Q, A51V, D70H, Y92D
B4: mAb27405 (antibody, human IgG4 S228P, kappa, V domains shown)
VH: QVQLVESGGGLVKPGGSLRLSCAASGFTFSDYYMSWIRQAPGKGLEWVSYISRTGSTKYYADSVKGRFTISRDNAKNSLNLQMSSLRAEDTAVYFCAREPLQHWGQGTLVTVSS
VL: KIVLTQTPLSSPVTLGQPASISCRSSQSLVHSDGDTYLSWLHQRPGQPPRLLIYTISNRLSGVPDRFSGSGAGTDFTLKISRVEAEDVGVYYCMQGTQFPALTFGGGTKVEIKR
B5: mAb27404 (antibody, human IgG4 S228P, kappa, V domains shown)
VH: B4 VH with V48I, Y50F
VL: B4 VL with K1N, I2V, L9I, T14I, I56V, L60V
B6: mAb27400 (antibody, human IgG4 S228P, kappa, V domains shown)
VH: EMQLVESGGGLVQPGGSLKVSCAASGFTLSDSSIHWVRQASGKGLEWIGRIRSKPYSYATAYAASVKGRFTISRDDSKNTAFLQMSGLKTEDTAVYYCTGGDDFWGQGTLVTVSS
VL: DIQMTQSPSTLSASVGDRITITCRASQSISTWLAWYQQKPGKAPKLLIYKASSLEGGVPSRFSGSGSGTDFTLTISSLQPDDFATYYCQQYNTYWTFGQGTKVEIKR

Target: T1, human ACVR1 extracellular domain expressed with a C-terminal myc-myc-hexahistidine tag (human)
T1 construct: also called hACVR1-MMH
T1 chain: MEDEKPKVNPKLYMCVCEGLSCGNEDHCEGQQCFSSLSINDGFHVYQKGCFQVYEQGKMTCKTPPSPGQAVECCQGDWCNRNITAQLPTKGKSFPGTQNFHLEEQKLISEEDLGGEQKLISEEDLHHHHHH
Test: SPR (Biacore), mAb captured, 25 C
Description: (§1) Equilibrium dissociation constants (KD) for ACVR1 binding to purified anti-ACVR1 monoclonal antibodies were determined using a real-time surface plasmon resonance biosensor (SPR-Biacore), Biacore 4000. All binding studies were performed in 10 mM HEPES, 150 mM NaCl, 3 mM EDTA, and 0.05% v/v surfactant Tween-20, pH 7.4 (HBS-ET) running buffer at 25° C. and 37° C. The Biacore CM5 sensor surface was first derivatized by amine coupling with a monoclonal mouse anti-human Fc antibody (GE, #BR-1008-39 or REGN2567) to capture anti-ACVR1 monoclonal antibodies. […] ACVR1 reagents were then injected over anti-human Fc captured anti-ACVR1 monoclonal antibody surface for 2.5-3 minutes at a flow rate of 30 μL/minute, while the dissociation of monoclonal antibody bound ACVR1 reagent was monitored for 10-15 minutes in HBS-ET running buffer. Kinetic association rate constant (kₐ) and dissociation rate constant (kd) were determined by fitting the real-time sensorgrams to a 1:1 binding model using Scrubber 2.0c curve-fitting software. Binding dissociation equilibrium constants (KD) and dissociative half-lives (t½) were calculated from the kinetic rate constants as: […]

Binder	900 nM or 100 nM Ag Bound (RU)	Kd [nM]	koff [s⁻¹]	kon [M⁻¹ s⁻¹]	t½ [min]
B1	47	8.43	0.000521	61800	22
B2	35	8.01	0.000207	25800	56
B3	34	6.52	0.000123	18900	94
B4	37	21	0.00147	69900	8
B5	46	4.49	0.000446	99200	26

Target: T2, mouse ACVR1 extracellular domain expressed with a C-terminal myc-myc-hexahistidine tag (mouse)
T2 construct: also called mACVR1-MMH; mACVR1-mmh
T2 chain: T1 chain with M1V, P10Q
Test: SPR (Biacore), mAb captured, 25 C
Description: as §1

Binder	900 nM or 100 nM Ag Bound (RU)	binding result
B1	-2	–
B6	-3	–
B2	1	no binding (tested: 900 nM or 100 nM)
B3	1	no binding (tested: 900 nM or 100 nM)
B4	0	no binding (tested: 900 nM or 100 nM)
B5	1	no binding (tested: 900 nM or 100 nM)

Target: T3, human ACVR1 extracellular domain expressed with a C-terminal mouse IgG2a Fc tag (human)
T3 construct: also called hACVR1-mFc
T3 chain: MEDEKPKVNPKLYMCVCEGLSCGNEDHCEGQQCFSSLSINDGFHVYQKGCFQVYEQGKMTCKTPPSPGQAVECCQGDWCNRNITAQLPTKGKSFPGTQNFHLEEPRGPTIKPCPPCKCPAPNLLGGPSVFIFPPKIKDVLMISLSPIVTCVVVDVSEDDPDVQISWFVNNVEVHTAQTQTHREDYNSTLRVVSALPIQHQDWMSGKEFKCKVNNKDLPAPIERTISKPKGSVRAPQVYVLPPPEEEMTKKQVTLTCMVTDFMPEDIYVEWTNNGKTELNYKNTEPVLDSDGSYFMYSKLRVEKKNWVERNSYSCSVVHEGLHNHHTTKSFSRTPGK
Test: SPR (Biacore), mAb captured, 25 C
Description: as §1

Binder	100 nM Ag Bound (RU)	Kd [nM]	koff [s⁻¹]	kon [M⁻¹ s⁻¹]	t½ [min]
B1	157	0.936	0.000121	129000	95
B6	24	11.9	0.000142	11900	81
B2	145	1.34	5.06e-05	38100	228
B3	135	0.918	3.2e-05	34900	361
B4	142	1.9	0.000201	106000	57
B5	160	0.444	8.76e-05	198000	132

Target: T1, human ACVR1 extracellular domain …
Test: SPR (Biacore), mAb captured, 37 C; 37 C
Description: as §1

Binder	Kd [nM]	koff [s⁻¹]	kon [M⁻¹ s⁻¹]	t½ [min]
B6	49	0.000476	9710	24

Target: T1, human ACVR1 extracellular domain …
Test: SPR (Biacore), mAb captured, 37 C
Description: as §1

Binder	900 nM or 100 nM Ag Bound (RU)	Kd [nM]	koff [s⁻¹]	kon [M⁻¹ s⁻¹]	t½ [min]
B1	64	21.4	0.00326	153000	3.5
B2	66	32.2	0.00173	53900	7
B3	66	19.7	0.000852	43200	14
B4	52	44.4	0.00528	119000	2.2
B5	67	7.63	0.00183	240000	6

Target: T2, mouse ACVR1 extracellular domain …
Test: SPR (Biacore), mAb captured, 37 C
Description: as §1

Binder	900 nM or 100 nM Ag Bound (RU)
B1	2
B6	2
B2	2
B3	2
B4	2
B5	4

Target: T3, human ACVR1 extracellular domain …
Test: SPR (Biacore), mAb captured, 37 C
Description: as §1

Binder	100 nM Ag Bound (RU)	Kd [nM]	koff [s⁻¹]	kon [M⁻¹ s⁻¹]	t½ [min]
B1	201	1.58	0.000495	314000	23
B6	68	12.8	0.000163	12700	71
B2	222	3.65	0.000335	91700	34
B3	216	2.44	0.000201	82200	57
B4	185	3.18	0.000742	233000	16
B5	216	1.11	0.000338	303000	34

The binders below were run against T4, full length human ACVR1 (R206H) on HEK293/BRE-luc/hACVR1-R206H-clone H2 cells (human, UniProt Q04771 21-509) (assay: cell-based or functional assay).
T4 sequence: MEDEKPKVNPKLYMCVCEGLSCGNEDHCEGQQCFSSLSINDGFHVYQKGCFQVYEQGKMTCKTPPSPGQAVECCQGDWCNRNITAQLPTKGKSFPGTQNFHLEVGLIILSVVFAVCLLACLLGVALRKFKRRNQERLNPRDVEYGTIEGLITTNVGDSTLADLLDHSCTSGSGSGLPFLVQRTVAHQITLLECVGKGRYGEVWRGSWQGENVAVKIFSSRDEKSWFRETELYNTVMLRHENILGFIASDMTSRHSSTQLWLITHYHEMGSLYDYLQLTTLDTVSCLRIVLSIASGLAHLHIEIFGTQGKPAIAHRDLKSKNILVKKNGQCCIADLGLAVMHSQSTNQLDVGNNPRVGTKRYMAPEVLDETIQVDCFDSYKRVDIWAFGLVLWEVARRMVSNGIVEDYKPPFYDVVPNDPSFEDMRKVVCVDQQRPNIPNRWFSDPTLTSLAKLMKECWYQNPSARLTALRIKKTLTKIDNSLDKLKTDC

Binder	% Inhibition, BRE-luc reporter, 2 nM hBMP7 [%]	IC50 [M], BRE-luc reporter, 2 nM hBMP7 [M]
B1	62	1.4e-10
B6	96	2e-09
B2	110	1.5e-09
B3	110	1.8e-09
B4	107	7.6e-10
B5	109	8.8e-10

What follows are binders tested against T4, full length human ACVR1 (R206H) on … (assay: flow cytometry, 70 nM antibody, HEK293/hACVR1-R206H cells).
Description: Cells were fixed using BD CytoFix™ (Becton Dickinson, #554655) and analyzed on either Hypercyt® or IQue® Flow Cytometers (Intellicyt®). Unstained and secondary antibody alone controls were also tested for all cell lines. The results were analyzed using ForeCyt® (IntelliCyt®) software to determine the geometric means of fluorescence for viable cells and binding ratios were calculated by normalizing the geometric mean value of the test condition by the geometric mean value of the corresponding unstained cells.

Binder	MFI - Normalized to Unstained Control [fold]
B1	1660
B6	840
B2	1660
B3	1160
B4	1560
B5	1870

Source: US20210253716A1 (Regeneron, published 2021)
